The values that follow come from PMC9171807 (Proceedings of the National Academy of Sciences of the …, 2022).

Assay [1] deals with T1, 17-residue MSLN C terminus peptide (human).
T1 chain: IPNGYLVLDLSMQEALS
Kind of assay: crystal structure.

The next assay concerns the target MSLN 296 to 591 (Homo sapiens (Human)., UniProt Q13421-3). The assay is described as follows: BLI.
A further assay deals with MSLN–585-his (Homo sapiens (Human)., UniProt Q13421-3). The assay is described as follows: ELISA.

B1: Fab fragment of mAb 15B6 (Fab, V domains shown)
VH: EVQLQQSGPVLVKPGASVKISCKASGYSFTGYYMHWVRQSNGKSLEWIGRINPYTGVPSYKHNFKDKASLTVDKSSSTAYMELHSLTSEDSAVYYCARELGGYWGQGTTLTVSS
VL: QAVVTQESALTTSPGETVTLTCRSSTGAVTTGNYPNWVQEKPDHLFTGLIAGTNNRAPGVPARFSGSLIGDKAALTITGAQTEDEAIYFCALWFSSHWVFGGGTKLTVL
For the molecule B1, the binding result in assay [1] is “binds”; with MSLN 296 to 591, “no binding”.

B2: monoclonal antibody (mAb) 15B6 (antibody, V domains shown)
VH: EVQLQQSGPVLVKPGASVKISCKASGYSFTGYYMHWVRQSLVKRLEWIGRINPYTGVPSYKHNFKDKASLTVDKSSSTAYMELHSLTSEDSAVYYCARELGGYWGQGTTLTVSS
VL: QAVVTQESALTTSPGETVTLTCRSSTGAVTTGNYPNWVQEKPDHLFTGLIAGTNNRAPGVPARFSGSLIGDKAALTITGAQTEDEAIYFCALWFSSHWVFGGGTKLTVL
Turning to B2, the binding result with MSLN–585-his was “no binding”.
